PMC8211282, “The bioactivity of soluble Fas ligand is modulated by key amino acids of its stalk region” (PLoS ONE, 2021)

How the values were obtained:
[1] = molecular target: T1, wild type soluble Fas ligand (WT-sFasL), long form, amino acids 103 to 281 (human, UniProt P48023 103-281); assay: ELISA; direct binding: wells coated with recombinant human soluble Fas, 5 ug/ml; serial 3-fold dilutions of WT or mut-sFasL, 2 hours; bound sFasL detected with a polyclonal anti-human FasL antibody; conditions: both partners purified
T1 construct: human Fas ligand (FasL, CD178), soluble long form, amino acids 103 to 281 of the 281 amino acid protein; cloned in pSecTag/FRT/V5-His-TOPO with stop codons, so the V5-His tag is not expressed ('native form'); Secreted from the pSecTag vector; the oligomeric state was not measured here; also called wild type sFasL; long form of sFasL
T1 sequence (looked up): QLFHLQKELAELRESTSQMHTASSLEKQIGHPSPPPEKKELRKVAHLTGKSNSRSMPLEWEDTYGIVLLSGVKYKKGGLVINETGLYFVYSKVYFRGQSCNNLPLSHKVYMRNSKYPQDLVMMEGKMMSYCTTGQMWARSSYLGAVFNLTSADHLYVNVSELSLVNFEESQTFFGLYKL

[2] = molecular target: T2, biotinylated wild type soluble Fas ligand (biotinylated WT-sFasL) (human, UniProt P48023 103-281, biotin (EZ-Link Sulfo-NHS-LC-Biotin), sites not stated); assay: ELISA; competition: wells coated with recombinant human soluble Fas (250 ng/ml); biotinylated WT sFasL (70 ng/ml) mixed with serial 3-fold dilutions of WT or 8-site mutated sFasL, 2 hours; biotin detected with HRP-streptavidin; conditions: both partners purified
T2 construct: human Fas ligand (FasL, CD178), soluble long form, amino acids 103 to 281; the same protein as m1, biotinylated after purification; Same construct as m1, chemically biotinylated
T2 sequence (looked up): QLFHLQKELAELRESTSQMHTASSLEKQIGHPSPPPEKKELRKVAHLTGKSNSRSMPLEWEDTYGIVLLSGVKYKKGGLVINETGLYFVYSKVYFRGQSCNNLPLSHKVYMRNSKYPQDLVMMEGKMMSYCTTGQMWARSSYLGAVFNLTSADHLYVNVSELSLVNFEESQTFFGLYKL

B1: recombinant human soluble Fas receptor (receptor, UniProt P25445 26-173, looked up)
chain: QVTDINSKGLELRKTVTTVETQNLEGLHHDGQFCHKPCPPGERKARDCTVNGDEPDCVPCQEGKEYTDKAHFSSKCRRCRLCDEGHGLEVEINCTRTQNTKCRCKPNFFCNSTVCEHCDPCTKCEHGIIKECTLTSNTKCKEEGSRSN
notes: human Fas (CD95), recombinant soluble receptor from PeproTech; No catalogue number is printed; also called recombinant human Fas; CD95; source: bought: PeproTech
binding result [1]: binds | binding result [2]: binds
